{"source": "patent US20150218285A1", "about": "(TORAY INDUSTRIES, published 2015)", "binders": {"B1": {"name": "human-chicken chimeric antibody #3 (antibody, human IgG1, kappa, V domains shown)", "VH": "AVTLDESGGGLQTPGGALSLVCKASGFTFSGYDMLWVRQAPGKGLEWVAGIGSTGGGTDYGAAVKGRATISRDNGQSTVRLQLNNLRAEDTATYYCAKVAGGCNSGYCRDSPGSIDAWGHGTEVIVSA", "VL": "AVTQQPASVSANPGETVKITCSGGGSRNYYGWYQQKSPGSVPVTVIYYDDQRPSNIPSRFSGALSGSTSTLTITGVQADDEAVYFCGSADSNTYEGSFGAGTTLTVLT", "notes": "produced similarly to human-chicken chimeric antibody #1 from chicken monoclonal antibody #3; human IgG1 constant domains; also called human-chicken chimeric monoclonal antibody #3"}, "B2": {"name": "mouse monoclonal antibody #5 (antibody, V domains shown)", "VH": "DAELVKPGASVKISCKASGYTFTDHSIHWVQQKPEQGLEWIGYISPGNGNIKYNEKFKGKATLTADKSSSTAYMQLNSLTSEDSAVYFCKRSLGRGGPYYFDYWGQGTTVTVSS", "VL": "DIVLTQAAPSLPVTPGESVSISCRSSKSLLHSNGNTYLYWFLQRPGQSPQLLIYRMSNLASGVPDRFSGSGSGTAFTLRISRVEAEDVGVYYCMQHREYPVTFGSGPN", "notes": "mouse hybridoma antibody"}, "B3": {"name": "mouse anti-CAPRIN-1 antibody #34 (antibody, V domains shown)", "VH": "GAELVRPGTSVKVSCKASVYAFTNYLIEWVKQRPGQGLEWIGVINPKSGGTKYNEKFRGKATLTADKSSSTAYMQLSSLTSGDSAVYFCAITGTDYWGQGTTLTVSS", "VL": "QGTRCDIQMTQTTSSLSASLGDRVTISCSASQGINNYLNWYQQKPDGTVKLLIYYTSSLRSGVPSRFSGSGSGTDYSLTISNLEPEDVATYYCQQYSKLPRTFGGGTKLEIKR", "notes": "mouse hybridoma antibody; also called mouse anti-CAPRIN-1 monoclonal antibody #34; mouse anti-CAPRN-1 antibody #34"}, "B4": {"name": "mouse anti-CAPRIN-1 antibody #31 (antibody, V domains shown)", "VH": "GPELVKPGASVKISCKASGYSFTGYFMNWVMQSHGKSLEWIGRINPYNGDTFYNQKFKGKATLTVDKSSSTAHMELRSLASEDSAVYYCARRIHYYYGSSYYAMDYWGQEPHH", "VL": "DVQITQSPSYLAASPGETITINCRASKSISKYLAWYQEKPGKTNKLLIYSGSTLQSGIPSRFSGSGSGTDFTLTISSLEPEDFAMYYCQQHNEYPWTFGGGTKLEIKR", "notes": "mouse hybridoma antibody; also called mouse anti-CAPRIN-1 monoclonal antibody #31"}, "B5": {"name": "rabbit anti-CAPRIN-1 monoclonal antibody #1 (antibody, V domains shown)", "VH": "QSLEESGGDLVKPGASLTLTCTASGFSFSGSYYMSWVRQAPGKGLEWIAYIYIGDGVTAYANWAKGRFTISKASSTTVTLQMTSLTAADTATYFCARGNKLWGPGTLVTVSS", "VL": "DVVMTQTPASVEAAVGGTVTIKCQASQSISSYLAWYQQKPGQPPKRLIYDASNLDSGVPSRFKGSGSGTDFTITISDLECADAATYYCQCTAVSSATIYGNAFGGGTEVVVK", "notes": "rabbit hybridoma antibody"}, "B6": {"name": "human-rabbit chimeric anti-CAPRIN-1 antibody #1 (antibody, V domains shown)", "VH": "QSLEESGGDLVKPGASLTLTCTASGFSFSGSYYMSWVRQAPGKGLEWIAYIYIGDGVTAYANWAKGRFTISKASSTTVTLQMTSLTAADTATYFCARGNKLWGPGTLVTVSS", "VL": "DVVMTQTPASVEAAVGGTVTIKCQASQSISSYLAWYQQKPGQPPKRLIYDASNLDSGVPSRFKGSGSGTDFTITISDLECADAATYYCQCTAVSSATIYGNAFGGGTEVVVK", "notes": "also called human-rabbit chimeric anti-CAPRIN-1 monoclonal antibody #1"}}, "key": {"[1]": {"molecular_target": "T1, polypeptide comprising the amino acid sequence set forth in SEQ ID NO: 269 (human)", "T1 peptide": "PPVNEPETLKQQNQYQAS", "assay": "ELISA on immobilised synthetic CAPRIN-1 peptides, culture supernatant"}, "[2]": {"molecular_target": "T2, CAPRIN-1 protein on the cell surface of human cancer cells (human, UniProt Q14444 2-709)", "T2 sequence (looked up)": "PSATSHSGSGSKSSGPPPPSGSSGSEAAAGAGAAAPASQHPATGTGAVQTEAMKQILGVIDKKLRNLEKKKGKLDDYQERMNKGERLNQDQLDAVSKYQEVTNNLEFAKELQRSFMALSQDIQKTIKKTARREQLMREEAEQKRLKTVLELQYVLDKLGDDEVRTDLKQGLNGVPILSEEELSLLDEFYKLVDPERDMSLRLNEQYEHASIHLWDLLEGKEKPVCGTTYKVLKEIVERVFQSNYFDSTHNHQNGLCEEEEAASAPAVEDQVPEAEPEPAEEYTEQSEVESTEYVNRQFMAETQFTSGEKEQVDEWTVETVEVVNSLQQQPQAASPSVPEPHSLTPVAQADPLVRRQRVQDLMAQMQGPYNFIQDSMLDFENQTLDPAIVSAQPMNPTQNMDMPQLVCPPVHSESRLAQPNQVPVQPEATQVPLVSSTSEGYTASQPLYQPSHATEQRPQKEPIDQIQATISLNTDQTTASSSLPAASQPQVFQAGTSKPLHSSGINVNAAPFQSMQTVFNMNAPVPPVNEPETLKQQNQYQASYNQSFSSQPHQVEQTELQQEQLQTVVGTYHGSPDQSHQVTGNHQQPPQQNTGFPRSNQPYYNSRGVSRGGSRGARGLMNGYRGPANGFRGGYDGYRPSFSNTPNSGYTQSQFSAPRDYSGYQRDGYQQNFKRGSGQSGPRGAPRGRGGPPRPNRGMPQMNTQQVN", "assay": "cell-based or functional assay"}, "[3]": {"molecular_target": "T3, peptide set forth in SEQ ID NO: 268 (human)", "T3 peptide": "FTSGEKEQVDEW", "assay": "ELISA on immobilised synthetic CAPRIN-1 peptides, culture supernatant"}, "[4]": {"molecular_target": "T4, polypeptide set forth in SEQ ID NO: 266 (human)", "T4 construct": "identified by ELISA on synthetic 12-16 aa peptides of human CAPRIN-1", "T4 peptide": "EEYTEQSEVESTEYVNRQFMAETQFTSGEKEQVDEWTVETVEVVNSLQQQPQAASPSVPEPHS", "assay": "ELISA on immobilised synthetic CAPRIN-1 peptides, culture supernatant"}, "[5]": {"molecular_target": "T2, CAPRIN-1 protein on the cell surface of …", "assay": "flow cytometry on Hep3B, HepG2, SK-Hep-1, SW480; culture supernatant; vs isotype control", "method": "Subsequently, four liver cancer cell lines (Hep3 GB, HepG2, SK-Hep-1, and SW480), which were confirmed to express a CAPRIN-1 gene, were investigated for whether or not a CAPRIN-1 protein is expressed on the surfaces of these cells. 1×10⁶ cells of each cell line were centrifuged with a 1.5-mL micro centrifugation tube. To the cells was added the culture supernatant (100 μL) containing any of mouse monoclonal antibodies #1 to #22 against a CAPRIN-1 protein reacting to cancer cell surface produced in Example 4 and mouse-chicken chimeric antibodies #1 to #3 against a CAPRIN-1 protein produced in the above (2), followed by being left to stand on ice for 1 hour. After washing with PBS, the cells were suspended in a FITC-labeled goat anti-mouse IgG antibody (manufactured by Invitrogen Corporation) diluted by 500-fold with PBS containing 0.1% FBS, followed by being left to stand on ice for 1 hour. After washing with PBS, the fluorescence intensity was measured with FACS Calibur available from Becton, Dickinson and Company. Separately, as a control, the same procedure as in above was performed using an iso-type control antibody, instead of the culture supernatants containing the mouse monoclonal antibodies #1 to #22 against a CAPRIN-1 protein and the mouse-chicken chimeric antibodies #1 to #3. As a result, the fluorescence intensity in the cells to which any of the monoclonal antibodies #1 to #22 and the mouse-chicken chimeric antibodies #1 to #3 was added was 20% or more higher than that in the control in every case. Specifically, in the case of using mouse-chicken chimeric antibody #1, the fluorescence intensity was enhanced by 200% or more in both SK-Hep-1 and Hep3B. […] The rate of increase in the fluorescence intensity is represented by the rate of increase in the mean fluorescence intensity (MFI value) in each cell and is calculated by the following calculation formula: […]"}, "[6]": {"molecular_target": "T5, polypeptide set forth in SEQ ID NO: 431 (human)", "T5 peptide": "VERVFQSNYFDSTHNH", "assay": "ELISA on immobilised synthetic CAPRIN-1 peptides, culture supernatant"}, "[7]": {"molecular_target": "T2, CAPRIN-1 protein on the cell surface of …", "assay": "flow cytometry on Hep3B, HepG2, SK-Hep-1, SW480; antibody 20 ug/mL; control: secondary antibody only", "method": "Four human liver cancer cell lines (Hep3 GB, HepG2, SK-Hep-1, and SW480) were investigated whether or not a CAPRIN-1 protein is expressed on the cell surface using mouse anti-CAPRIN-1 monoclonal antibodies #30 to #36. 5×10⁵ cells of each of the liver cancer cell lines were centrifuged with a 1.5-mL micro centrifugation tube. The cells were subjected to reaction with each of mouse anti-CAPRIN-1 antibodies #30 to #36 at a final concentration of 20 μg/mL, followed by being left to stand on ice for 1 hour. After washing with PBS, the cells were reacted with a 100-fold diluted Alexa488-labeled goat anti-mouse IgG antibody (manufactured by Invitrogen Corporation), followed by being left to stand on ice for […]. After washing with PBS, the fluorescence intensity was measured with FACS Calibur available from Becton, Dickinson and Company. Separately, the cells were subjected to reaction with only the secondary antibody as a negative control."}, "[8]": {"molecular_target": "T6, polypeptide set forth in SEQ ID NO: 430 (human)", "T6 peptide": "ATQVPLVSSTSEGYTA", "assay": "ELISA on 93 synthetic CAPRIN-1 peptides, purified antibody 0.1 ug/mL", "method": "Candidate peptides (93 peptides) each consisting of 12 to 16 amino acids of the amino acid sequence of the human CAPRIN-1 protein were synthesized and were each dissolved at a concentration of 1 mg/mL in DMSO. Each peptide was dissolved at a concentration of 30 μg/mL in a 0.1 M sodium carbonate buffer (pH 9.6). The solution was added to a 96-well plate (manufactured by Nunc, Product No. 436006) at 100 μL per well, followed by being left to stand at 4° C. overnight. The solution was removed, and 200 μL of 10 mM ethanolamine/0.1 M sodium carbonate buffer (pH 9.6) was added to each well, followed by being left to stand at room temperature for 1 hour. The solution was removed, and each well was washed with PBS containing 0.5% Tween 20 (PBST) twice to prepare a peptide-immobilized plate. For confirmation, this plate was also provided with a well to which the CAPRIN-1 protein was immobilized in accordance with the method described above. Rabbit anti-CAPRIN-1 monoclonal antibody #1 purified to a concentration of 0.1 ug/mL by a usual method was added to the plate at an amount of 50 μL per well, followed by shaking at room temperature for 1 hour. The solution was removed, and each well was washed with PBST three times. […] The absorbance was measured at 450 nm and 595 nm with an absorption spectrometer. […]"}, "[9]": {"molecular_target": "T6, polypeptide set forth in SEQ ID NO: 430", "assay": "ELISA as in Example 13(1), purified antibody"}}}
{"binder": "B1", "values": [{"measurement": "binding result", "setting": "[1]", "value": "binds"}, {"measurement": "cytotoxicity (ADCC, 51Cr release) on SK-Hep-1", "setting": "[2]", "value": "≥ 12", "unit": "%"}]}
{"binder": "B2", "values": [{"measurement": "binding result", "setting": "[3]", "value": "binds"}, {"measurement": "binding result", "setting": "[4]", "value": "binds"}, {"measurement": "rate of increase in mean fluorescence intensity", "setting": "[5]", "value": "≥ 20", "unit": "%"}, {"measurement": "cytotoxicity (ADCC, 51Cr release) on SK-Hep-1", "setting": "[2]", "value": "≥ 12", "unit": "%"}]}
{"binder": "B3", "values": [{"measurement": "binding result", "setting": "[6]", "value": "binds"}, {"measurement": "increase in fluorescence intensity over the control", "setting": "[7]", "value": "≥ 35", "unit": "%"}]}
{"binder": "B4", "values": [{"measurement": "increase in fluorescence intensity over the control", "setting": "[7]", "value": "≥ 35", "unit": "%"}]}
{"binder": "B5", "values": [{"measurement": "binding result", "setting": "[8]", "value": "binds"}]}
{"binder": "B6", "values": [{"measurement": "binding result", "setting": "[9]", "value": "binds"}]}
